Experimental data: patent US8926955B2, “Synthesis of polymer conjugates of indolocarbazole compounds” (priority 2008, dated 2015)
Where two headings read alike, the source gives them in different places.

Legend:
[1] = test system: New Zealand White Specific Pathogen Free (SPF) rabbits; assay: 13 week dermal toxicity study in rabbits with 4 week recovery
Method: (§1) Three groups, each of 6 male and 6 female New Zealand White Specific Pathogen Free (SPF) rabbits (cf. Table 3: male numbered with even numbers, female numbered with uneven numbers), received the test item by dermal application at dosages of 0.5, 2.5 and 5 mg/animal/day for 13 consecutive weeks (Table 3, group numbers 2-4, respectively). A fourth similarly constituted group received the vehicle alone (purified water) and acted as a control (Table 3, group number 1). Control and high dose groups (Table 3, group numbers 4 and 1, respectively). included 3 additional animals per sex for recovery assessment.
(§2) The following investigations were performed: daily clinical signs, body weight, food consumption, macroscopic observations of the treatment sites, clinical pathology investigations, terminal body weight, organ weight, post mortem macroscopic observations and histopathological examination.
(§3) The treatment sites were examined, each day, approximately 3 hours after the start of dosing. Irritation of the sites, when compared to the adjacent untreated skin, was assigned a numerical value according to the table below:

Balb/c 3T3 cells = format: cell-based; details: for IC50 (neutral red uptake): up to 1000 μg/ml
Method: The potential in vitro phototoxicity of the test item was evaluated by the measurements of neutral red uptake for cellular toxicity on cultures of Balb/c 3T3 cells treated with different doses of the test item and exposed to UVA irradiation. Test item solutions were prepared using Earle's Balanced Salt Solution (EBSS).
A preliminary dose-range finding experiment in the presence (+UVA) and in the absence (−UVA) of light was undertaken in order to select appropriate dose levels for the main assays. The test item was assayed at a maximum dose level of 1000 μg/ml (the upper limit indicated in the study protocol) and at a wide range of lower dose levels: 500, 250, 125, 62.5, 31.3, 15.6 and 7.81 μg/ml. […] In this case the chemical is considered to be non-phototoxic. The same dose range was used for the main assay.
A main experiment was performed using the following dose levels: 1000, 500, 250, 125, 62.5, 31.3, 15.6 and 7.81 μg/ml.

rat = assay: Acute dermal toxicity study in rats; format: in vivo
Method: The acute toxicity of the conjugate of Example 3 was investigated following administration of a single dermal dose to the rat.
A single dose of 2000 mg/kg was administered to a group of 5 male and 5 female animals for a 24 hour period. The day before scheduled dosing the fur was removed from the dorsal surfaces of the trunk over an estimated area of 10% of the total body surface. Care was taken to avoid any damage or abrasion to the skin. The test item was administered topically at a dose volume of 4 ml/kg body weight, just after its preparation. The required aliquot of the formulated test item was spread evenly over a gauze measuring 2.5×2.5 cm. The gauze patch was then placed onto the animal's skin, with the test item in direct contact with the skin. A strip of synthetic film was placed over the treated site and the whole assembly held in place by encircling the trunk of the animal with a length of elastic adhesive bandage. After a period of 24 hours, the tape dressing will be removed. The treated skin site was then gently washed free of any remaining test item using lukewarm water. Throughout the study, all animals will be checked twice daily. Animals were examined for signs of reaction to treatment on dosing, approximately 30 min, 2 and 4 hours after dosing on day 1, then daily for a total of 14 days. Each animal was weighed on the day of allocation to the study, on the day of dosing (day 1) and on days 8 and 15. After a 14 day period all animals were killed and subjected to a necropsy examination.

[2] = Solubility in RPMI 1640 complete medium; format: physicochemical
[3] = test system: New Zealand White Specific Pathogen Free (SPF) rabbits; details: rabbit, in vivo
Method: as §1, §2, §3

[4] = Toxicokinetics (plasma levels) in 13 week dermal rabbit study; format: in vivo
Text: Blood samples were taken from each animal on Day 1 and Week 13 for toxicokinetic evaluations.

Sprague Dawley rats = assay: 13 week dermal toxicity study in rats with 4 week recovery
Method: The purpose of this study was to evaluate the toxicity of the test item in rats after daily dermal administration (6 hours exposure) over a period of 13 weeks and to investigate possible recovery from any potential treatment-related effects over a period of 4 consecutive weeks.
Three groups, each of 10 male and 10 female Sprague Dawley rats (cf. Table 1: male numbered with even numbers, female numbered with uneven numbers) received the test item by dermal application at dosages of 0.5, 2.5 and 5 mg/kg/day for 13 consecutive weeks (Table 1: group numbers 2-4). A fourth similarly constituted group received the vehicle alone (purified water) and acted as a control (Table 1: group number 1). Five additional animals for each sex were included in the high and control groups (Table 1: group numbers 4 and 1, respectively) for recovery assessment.
The treatment sites were examined each day, approximately 3 hours after the start of dosing. Irritation of the sites, when compared to the adjacent untreated skin, was assigned a numerical value according to the table below:

TrkA = TrkA (Homo sapiens, UniProt P04629); assay: Off-chip Mobility Shift Assay, IC50 against TrkA kinase; format: biochemical; details: ATP 75 μM, CSKtide 1000 nM
Sequence of TrkA (P04629 33-796): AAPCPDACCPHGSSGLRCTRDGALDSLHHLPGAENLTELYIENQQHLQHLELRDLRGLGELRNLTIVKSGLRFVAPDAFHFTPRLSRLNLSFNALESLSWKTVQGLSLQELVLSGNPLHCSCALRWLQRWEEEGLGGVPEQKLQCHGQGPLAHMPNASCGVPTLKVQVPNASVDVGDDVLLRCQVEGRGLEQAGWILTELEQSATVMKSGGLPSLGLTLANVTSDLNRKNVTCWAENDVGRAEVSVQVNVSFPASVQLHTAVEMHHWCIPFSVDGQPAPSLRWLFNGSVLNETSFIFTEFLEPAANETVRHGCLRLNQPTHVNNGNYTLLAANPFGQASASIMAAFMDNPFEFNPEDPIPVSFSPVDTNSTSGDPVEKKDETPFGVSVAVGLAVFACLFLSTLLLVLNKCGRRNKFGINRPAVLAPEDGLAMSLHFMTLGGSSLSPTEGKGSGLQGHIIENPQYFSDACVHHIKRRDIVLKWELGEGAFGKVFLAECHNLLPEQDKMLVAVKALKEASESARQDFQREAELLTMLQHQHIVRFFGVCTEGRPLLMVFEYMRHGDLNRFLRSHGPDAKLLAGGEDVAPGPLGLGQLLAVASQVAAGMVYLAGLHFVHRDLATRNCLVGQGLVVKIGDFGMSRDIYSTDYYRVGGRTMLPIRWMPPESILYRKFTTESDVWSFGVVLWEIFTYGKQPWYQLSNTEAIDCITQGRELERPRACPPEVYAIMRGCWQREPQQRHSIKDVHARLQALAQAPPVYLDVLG
Method: The test compound was dissolved in dimethylsulfoxide (DMSO) and then the solution was further 25-fold diluted with assay buffer to make the final test compound solution. The conjugate was tested at the following concentrations: 30000 nM, 10000 nM, 3000 nM, 1000 nM, 300 nM, 100 nM, 30 nM, 10 nM, 3 nM and 1 nM.
The assay procedure is represented by an Off-chip Mobility Shift Assay (MSA) and is reported below:
IC50 value was calculated from concentration vs. % inhibition curves by fitting to a four parameter logistic curve.

[5] = test system: mouse lymphoma L5178Y cells; assay: Preliminary cytotoxicity assay in L5178Y cells; format: cell-based
Method: A preliminary cytotoxicity assay was performed. Based on the solubility results, the test item was assayed at a maximum dose level of 5000 μg/ml both in the absence and presence of S9 metabolism. A wide range of lower dose levels were included in the treatment series: 2500, 1250, 625, 313, 156, 78.1, 39.1 and 19.5 μg/ml.

[6] = 0.5, 2.5 and 5 mg/animal/day dermal, 13 weeks
[7] = 0.5, 2.5 and 5 mg/kg/day dermal, 13 weeks

With “oxazolidindionic conjugate of K252a with PEG (1892 MW) [test item]” the adverse effects ([1]; 0.5, 2.5 and 5 mg/animal/day) was “No adverse effects were seen at any of the dose levels”, the clinical signs [1, 6] was “no treatment-related clinical signs were observed” and the mortality [1, 6] was “No treatment-related mortality occurred”. The “absolute and relative organ weight” value ([1]; 13 weeks dermal) was “no changes in absolute and relative organ weight of toxicological significance were observed”, the body weight ([1]; 13 weeks dermal) was “No relevant differences in body weight were recorded” and the food consumption ([1]; 13 weeks dermal) was “comparable to controls”. For the same substance, the “haematology and clinical chemistry” value ([1]; 13 weeks dermal) was “no changes of toxicological significance were recorded”, the terminal body weight ([1]; 13 weeks dermal) was “comparable between control and treated groups” and the “No Observed Adverse Effect Level (NOAEL)” value ([1]; daily dermal administration to rabbits, 13 weeks) was 5 mg/animal/day. For the same substance, the “irritation of treated sites (macroscopic observations)” value ([1]; daily dermal, 13 weeks) was “No signs of irritation were observed”, the ophthalmic examination ([1]; end of the treatment period) was “no treatment-related lesions were detected” and the “Photo Irritation Factor (PIF)” value (Balb/c 3T3 cells) was “could not be calculated”. For the same substance, the “mean photo effect (MPE)” value (Balb/c 3T3 cells) was 0.089, the phototoxicity classification (Balb/c 3T3 cells) was “non phototoxic” and the “IC50 (neutral red uptake)” value (Balb/c 3T3 cells; main experiment, both curves (+UV and -UV)) was “no IC50 value”. The “IC50 (neutral red uptake)” value (Balb/c 3T3 cells; preliminary dose-range finding, +UVA and -UVA) was “no IC50 value was calculable”, the “abnormalities in the treated site” value (rat; 2000 mg/kg single dermal dose) was “No abnormalities were observed in the treated site” and the clinical signs (rat; 2000 mg/kg single dermal dose) was “no clinical signs were observed”. For the same substance, the “internal abnormalities at necropsy” value (rat; 2000 mg/kg single dermal dose) was “No internal abnormalities were found at necropsy”, the mortality (rat; 2000 mg/kg single dermal dose, 14 day observation) was “No mortality occurred” and the “changes in body weight” value (rat; 2000 mg/kg single dermal dose, end of study) was “within the expected range”. The toxic effect (rat; dermal exposure over 24 hours at 2000 mg/kg) was “no toxic effect”, the LD50 (rat; single dermal dose, 24 hour exposure, rat) was “greater than 2000 mg/kg” and the solubility [2] was no less than 50.0 mg/mL. For the same substance, the “macroscopic and microscopic observations” value [3] was “no treatment-related changes were noted”, the accumulation ([4]; daily dermal administration over 13 weeks) was “no accumulation occurred” and the “absorption through the dermal route” value ([4]; rabbit plasma sample analyses) was “only minimally absorbed”. For the same substance, the absorption ([4]; week 13, dermal) was “Very low absorption”, the adverse effects (Sprague Dawley rats; 0.5, 2.5 and 5 mg/kg/day) was “No adverse effects were seen at any of the dose levels” and the body weight (Sprague Dawley rats; [7]) was “No relevant differences in body weight were recorded”. The clinical signs (Sprague Dawley rats; [7]) was “no treatment-related clinical signs were observed”, the food consumption (Sprague Dawley rats; [7]) was “comparable to controls” and the mortality (Sprague Dawley rats; [7]) was “No treatment-related mortality occurred”. For the same substance, the “absolute and relative organ weights” value (Sprague Dawley rats; 13 weeks dermal) was “No changes in absolute and relative organ weights of toxicological significance were observed”, the “clinical chemistry and urinalysis” value (Sprague Dawley rats; 13 weeks dermal) was “No changes of toxicological significance were observed” and the “macroscopic and microscopic observations” value (Sprague Dawley rats; 13 weeks dermal) was “No treatment-related changes were noted”. For the same substance, the terminal body weight (Sprague Dawley rats; 13 weeks dermal) was “comparable between control and treated groups”, the “No Observed Adverse Effect Level (NOAEL)” value (Sprague Dawley rats; daily dermal administration to rats, 13 weeks) was 5 mg/kg/day and the ophthalmic examination (Sprague Dawley rats; end of the treatment period) was “No treatment-related lesions were detected”. The “irritation index at treated sites” value (Sprague Dawley rats; erythema/oedema score 0-4, daily dermal, 13 weeks) was 0, the haematology (Sprague Dawley rats; partial reversibility at end of recovery period) was “leucopenia observed in animals of high dose group and in females of medium dose group” and the IC50 (TrkA) was 202 nM. The relative survival ([5]; absence of S9, long treatment time, two higher concentrations, % of concurrent negative control) was “approximately 60%”, the relative survival ([5]; absence of S9, short treatment time, several concentrations, no dose relationship) was “slight reduction of relative survival” and the toxicity ([5]; presence of S9, up to 5000 μg/ml) was “no relevant toxicity was observed”.
